Source: patent US7449185 (Daiichi Sankyo, dated 2008)

What was measured:
[1] = target: T1, osteoclastogenesis inhibitory factor (OCIF), recombinant, monomer or dimer type not specified at the place of … (human, UniProt O00300 22-401, 125I on tyrosine residues where used as 125I-labeled OCIF (Iodogen method)); assay: Scatchard plot of labeled OCIF on cell membrane (told in the general description)
T1 construct: Secreted protein, about 60 kDa as monomer and 120 kDa as dimer; also called recombinant OCIF
T1 sequence (looked up): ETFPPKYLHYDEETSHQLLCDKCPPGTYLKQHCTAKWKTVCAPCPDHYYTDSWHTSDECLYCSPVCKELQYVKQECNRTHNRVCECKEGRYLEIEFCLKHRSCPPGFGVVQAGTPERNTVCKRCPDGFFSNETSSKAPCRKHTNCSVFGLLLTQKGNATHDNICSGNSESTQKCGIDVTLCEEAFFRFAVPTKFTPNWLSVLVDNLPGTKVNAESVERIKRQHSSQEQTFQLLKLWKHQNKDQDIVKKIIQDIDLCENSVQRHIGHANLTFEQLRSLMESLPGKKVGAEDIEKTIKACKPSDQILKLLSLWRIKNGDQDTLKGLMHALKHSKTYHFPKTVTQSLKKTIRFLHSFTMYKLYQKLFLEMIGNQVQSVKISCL

[2] = target: T2, OCIF, monomer type (60 kDa) (human, UniProt O00300 22-401, limits assumed, 125I on tyrosine residues (Iodogen method)); assay: Scatchard plot of 125I-OCIF binding to ST2 cells (passage about 10) cultured with vitamin D3 and dexamethasone
T2 construct: Monomer type of rOCIF, 60 kDa; also called monomer-form OCIF
T2 sequence (looked up): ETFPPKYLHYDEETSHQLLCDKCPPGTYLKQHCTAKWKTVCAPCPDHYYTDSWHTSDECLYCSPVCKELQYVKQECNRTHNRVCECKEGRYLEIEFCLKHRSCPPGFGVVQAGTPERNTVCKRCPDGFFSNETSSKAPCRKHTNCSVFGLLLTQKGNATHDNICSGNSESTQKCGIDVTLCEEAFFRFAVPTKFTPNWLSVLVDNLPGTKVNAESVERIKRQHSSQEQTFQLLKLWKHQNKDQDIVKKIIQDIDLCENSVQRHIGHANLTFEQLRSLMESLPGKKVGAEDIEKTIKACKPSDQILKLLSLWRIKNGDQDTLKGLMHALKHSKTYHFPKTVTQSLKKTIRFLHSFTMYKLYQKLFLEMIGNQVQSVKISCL
Procedure: Solutions for measuring non-specific binding were prepared by further adding 400-fold concentration of monomer-form OCIF to these solutions. […] The results were subjected to Scatchard Plot analysis to determine the dissociation constant of OCIF and OCIF-binding protein and the number (site) of OCIF-binding protein per a ST2 cell. […] Based on the finding in Example 5(1) that osteoclasts-formation supported by the ST2 cells with passage number about 40 was more extensive than that with passage number about 10, the number (the site) of the protein of the present invention expressed on the ST2 cell with a passage number about 40 was assessed.

B1: natural OCIF-binding protein (mouse OBM) on mouse osteoblastic stromal ST2 cells cultured with active-form vitamin D3 and dexamethasone (ligand)
chain: MRRASRDYGKYLRSSEEMGSGPGVPHEGPLHPAPSAPAPAPPPAASRSMFLALLGLGLGQVVCSIALFLYFRAQMDPNRISEDSTHCFYRILRLHENAGLQDSTLESEDTLPDSCRRMKQAFQGAVQKELQHIVGPQRFSGAPAMMEGSWLDVAQRGKPEAQPFAHLTINAASIPSGSHKVTLSSWYHDRGWAKISNMTLSNGKLRVNQDGFYYLYANICFRHHETSGSVPTDYLQLMVYVVKTSIKIPSSHNLMKGGSTKNWSGNSEFHFYSINVGGFFKLRAGEEISIQVSNPSLLDPDQDATYFGAFKVQDID
notes: also called the protein of the present invention; OBM on ST2 cells
Kd [1]: 0.1 to 0.5 nM
Kd [2]: 0.28 nM
